Results as given in article PMC11184549 (ACS Infectious Diseases, 2024).
No end group written: not given here. *: point of attachment. FITC = O=C1OC2(c3ccc(O)cc3Oc3cc(O)ccc32)c2ccc(NC(=S)*)cc21; Ahx = NCCCCCC(=O)O

Molecular target: human IMPα1 lacking the IMPβ-binding domain (IMPαΔIBB) (human, UniProt P52292 70-529)
Experiment: fluorescence polarisation

B1: FITC-labeled DENV1 NS5 NLS_(Central) peptide (peptide)
chain: {FITC-Ahx}-LWGFLSRNKKPRICTREEF
For B1, the Kd was > 700 nM.
